In the supplement of paper PMC7877785:
± gives the uncertainty stated by the source.

Experiment: self-splicing fitness, log relative to wild type (ln ratio); higher = more splicing; Tetrahymena group I intron in knt gene, E. coli kanamycin selection, DiMSum; sequences stand for … in CUCUCU…GGAGGGAAAAGUUAUCAGGCAUGCACCUGGUAGCUAGUCUUUAAACCAAUAGAUUGCAUCGGUUUAAAAGGCAAGACCGUCAAAUUGCGGGAAAGGGGUCAACAGCCGUUCAGUACCAAGUCUCAGGGGAAACUUUGAGAUGGCCUUGCAAAGGGUAUGGUAAUAAGCUGACGGACAUGGUCCUAACCACGCAGCCAAGUCCUAAGUCAACAGAUCUUCUGUUGAUAUGGAUGCAGUUCACAGACUAAAUGUCGGUCGGGGAAGAUGUAUUCUUCUCAUAAGAUAUAGUCGGACCUCUCCUUAAUGGGAGCUAGCGGAUGAAGUGAUGCAACACUGGAGCCGCUGGGAACUAAUUUGUAUGCGAAAGUAUAUUGAUUAGUUUUGGAGUACUCGUGGUCG
In short: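 Library with all eight P1ex-region intron nucleotides randomised, intron inside the knt kanamycin-resistance gene on pET-22b(+), in E. coli BL21(DE3). Cells grew overnight at 37°C or 30°C on LB agar with or without 25 μg/mL kanamycin (plus 100 μg/mL carbenicillin, 50 μM IPTG, 0.2% rhamnose), in six replicate transformations. Pooled colonies were amplicon-sequenced on Illumina HiSeq 2500. DiMSum fitness is the error-weighted combination of wild-type-normalised replicate fold changes, kanamycin versus none.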

Row | Sequence | self-splicing fitness (ln) (30 °C) | self-splicing fitness (ln) (37 °C)
1 | AAAAAGCAAUAUUACGGAAC | -2.97 ± 0.16 | -1.77 ± 0.2
2 | GGAGAGCAAUAUUACGUAAC | -1.69 ± 0.11 | -0.596 ± 0.15
3 | UGUAAGCAAUAUUACGUAGC | – | -1.96 ± 0.45
4 | GAGCAGCAAUAUUACGGGAA | -3.18 ± 0.26 | -2.05 ± 0.22
5 | UGACAGCAAUAUUACGCUCC | -1.28 ± 0.13 | -0.275 ± 0.14
6 | GUUCAGCAAUAUUACGAGUA | -1.66 ± 0.19 | -0.65 ± 0.16
7 | CAAAAGCAAUAUUACGUGGC | -3.26 ± 0.13 | -2.6 ± 0.2
8 | CCCAAGCAAUAUUACGAGUC | -3.23 ± 0.16 | -3.28 ± 0.24
9 | AUGUAGCAAUAUUACGUGGG | – | -3.13 ± 0.21
10 | AAGAAGCAAUAUUACGUUGU | -3.2 ± 0.1 | -2.06 ± 0.11
11 | GACGAGCAAUAUUACGUCGC | -3.25 ± 0.47 | -0.634 ± 0.35
12 | AUGUAGCAAUAUUACGACGC | -0.952 ± 0.12 | 0.119 ± 0.082
13 | UCCAAGCAAUAUUACGGUCA | -0.259 ± 0.06 | 0.0746 ± 0.065
14 | UGUUAGCAAUAUUACGAUUG | -0.695 ± 0.084 | -0.795 ± 0.12
15 | CGGGAGCAAUAUUACGGAAG | -2.64 ± 0.18 | -1.3 ± 0.17
16 | GUGUAGCAAUAUUACGCACU | -2.59 ± 0.41 | -2.13 ± 0.33
17 | GAUUAGCAAUAUUACGGGUC | – | -2.78 ± 0.34
18 | UCUAAGCAAUAUUACGGAGU | -2.04 ± 0.13 | -0.505 ± 0.14
19 | ACGCAGCAAUAUUACGGGCG | -1.5 ± 0.063 | -1.3 ± 0.072
20 | CUAAAGCAAUAUUACGGCGG | -0.171 ± 0.064 | 0.0633 ± 0.081
21 | AGGUAGCAAUAUUACGGGGU | -3.984 ± 0.027 | -2.94 ± 0.038
22 | GUGCAGCAAUAUUACGGAAG | -3.19 ± 0.24 | -1.77 ± 0.25

Row | Sequence | self-splicing fitness (ln) (30 °C) | self-splicing fitness (ln) (37 °C)
23 | CUUGAGCAAUAUUACGCACG | -3.3 ± 0.44 | -2.48 ± 0.43
24 | UUAUAGCAAUAUUACGGGGC | -2.88 ± 0.34 | –
25 | CUCGAGCAAUAUUACGAUGU | – | -2.06 ± 0.3
26 | UGCAAGCAAUAUUACGGGAU | -3.04 ± 0.13 | -2.89 ± 0.15
27 | UCGAAGCAAUAUUACGAUAG | -2.95 ± 0.25 | -1.14 ± 0.18
28 | CAUUAGCAAUAUUACGGUCA | -2.02 ± 0.3 | -1.63 ± 0.3
29 | ACUUAGCAAUAUUACGUUUA | -1.5 ± 0.17 | -1.07 ± 0.18
30 | UAUAAGCAAUAUUACGGGCA | -0.658 ± 0.11 | 0.213 ± 0.12
31 | AGGCAGCAAUAUUACGUGAA | -1.12 ± 0.07 | -0.932 ± 0.11
32 | AAAGAGCAAUAUUACGACCG | -3.83 ± 0.18 | -2.5 ± 0.19
33 | GUAGAGCAAUAUUACGGUCU | -1.46 ± 0.1 | -0.783 ± 0.14
34 | CACUAGCAAUAUUACGGCCC | – | -1.71 ± 0.46
35 | GUCAAGCAAUAUUACGGCUC | -0.927 ± 0.057 | 0.181 ± 0.084
36 | UAAGAGCAAUAUUACGUAUG | -5.26 ± 0.45 | -2.47 ± 0.34
37 | AUGCAGCAAUAUUACGGCAU | -3.9 ± 0.19 | -2.61 ± 0.15
38 | GUCGAGCAAUAUUACGGGAC | -3.05 ± 0.22 | -2.05 ± 0.21
39 | CAUAAGCAAUAUUACGUUAA | -2.6 ± 0.23 | -2.92 ± 0.4
40 | AGCAAGCAAUAUUACGAUGG | -2.63 ± 0.15 | -2.01 ± 0.2
41 | UUUAAGCAAUAUUACGAAAU | -2.95 ± 0.24 | -1.04 ± 0.19
42 | UGCUAGCAAUAUUACGGUCU | -0.539 ± 0.084 | -0.14 ± 0.08
43 | GAGUAGCAAUAUUACGGAUA | -2.11 ± 0.25 | -2.41 ± 0.25
44 | ACGCAGCAAUAUUACGUUUC | -3.87 ± 0.2 | -2.61 ± 0.25
